# Experimental data as given in the NTF2 design screens of Basanta et al. (2020).
# Experiment: protease stability score; higher = more stable; yeast display proteolysis, trypsin and chymotrypsin;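 also: relative to predicted unfolded state with 0 unfolded-like and 1 meaning tenfold more protease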
sequence,measurement,value
DELHEFLERVAERLVRMEHTGNEEELKKLMDPHVRLVVGDKTSVGREELLRFLEELKRKIGWTNFTVHVRRIEVQGDFFNVDMELHVNGRSLHVLIRVQIINGKLESIHWIWI,protease stability score,2.03
DELHELVKRYWDRWIESMLTGDFDANHELVDPHARVDIGDKRFHGRELYELHYKRIDHFHIHEINIRHIEVVDGRVHIDVIMHTFEIVNGVKFSHHFRQIIIIEKVDGRWVVRRIIVK,protease stability score,1.01
DELHERLEEVLEVRIEAILTGDWHWLSRMLDPDTRLEVGDKTYHGMEKIYEKLHTETRRMGWRMEVEIKDYRFQGDYLNVDGTIHIKIGDKEIQKRSELKIVVVDGRITEFKIEYR,protease stability score,1.18
DELHETVEHAMERMIESSKTGDWRSLTKLMDPNVRMHIDGVDLIGWEIAVRVILEIRIEHVHIHHIDVQGDKMEVDVSVRIHFNGKHEDRQIVLFAEKVDGRWINRSVEIR,protease stability score,1
DELHHVLEIMLRELITAWRTGDERVLNELFDPHVLIVIGDKYYHGREFVTRWLRHIRIKHSEFHLRRIHIQGDYVHITGEFRIEGEFDGRENTVTHDSKIVTLKIDGRWTFHSIVLE,protease stability score,2.16
DELHKFAEEFMKIFVHNFFTGDWRTMHELLDPHVRLDFNGVEHIGRENVLKFWEEIRRRYDHFHIEVKRVETQGEKAHSDVHLEFRINGQEEHRKQHWHLDVINGRIHSFFVEVE,protease stability score,2.03
DELHKHAEHMAKLIVETLETGDEDKIRELADPNVRMEIGDKRTIGREELTKLLRKWLSEWRVHDMHVESVEMQGDYTHLHTSVRGEVNGRHRELDTRIDVLVVNGRLKSLRLEIR,protease stability score,1.04
DELHKLAEDHLEDFSRAIHTGDEDHLHHLIDPDVRYHQGDKNLHGRESWHEILERIDHVESEDVKMHRIERQGNKLIIDGEWHMRFVYNGQEKRVEMNTIVILLKVNGKWVNEAWHIR,protease stability score,0.463
DELHNLLEHALKIVIELWRTGDWRLIDKMLDPNTLLNFNGKNIHGREEIDRLRKELGIEFFAIEDQDYRRMHIQGDKIELDGDSDIIINGQRRRTHVHLHLEKINGRWVDRRIIFL,protease stability score,0.913
DELHRDVTEAIKLILHAERTGNWRLMMDLMDPHVKLTIGDKEVHGMEAVFNELRTELEELGLDRFESHVRLRDFRIYDGRVDFHVELIFDFNGREIRHDTRFIVEKVDGRWFIKHIQYG,protease stability score,2.13
DELIEEARRFHEKLVDNLETGNEEEFEREIDPNTRVDFNGVEIHGWKHFSKMFKEIRFHQVRLHDIRAVGNKVDSDEDVDGNYNGVRVRHRIHVVARKVNGRWLMESVIFR,protease stability score,1.24
DELIKLAHEFLRIMYDSLRTGDEDRVSELLDPHARLDINGKKRHGRKAILDTYREIWFHDIKIKDVDVIDGVIEIDTRLDLEINGVRFEMKTIIFLTKFNGRWVIEEIRIR,protease stability score,1.21
DELKDIMREVAEIIIRLEHTGDWRVFRKMADPNVRIDIGDFHIIGREEWRHWIEELRERIKNLKVEIRITHIESQGDKVHSDTRLIIRFDGVTEERTQHLHFVIVDGRVTSVRYENR,protease stability score,0.009
DELKEILLRIIEKMLHALLTGNFEELLKNVDPRTRNDINGVDAVGRENIKRVWEEILRRIDHWEEVRIEDFRVQGDKVHIDGRLIMRVDGRREDTTTHLHIIVFNGRVESIKFEIR,protease stability score,1.57
DELKEISDEIVLMFDRAIRTGDEHTMKKLLDPNYLLRVDGVDIVGRERFTEIIRQFDHVDYESHRIRDVSIQGDKIDVDSETDIHFTYNGKRERRTYRVRIIILKINGRWRIHEVHLH,protease stability score,1.77
DELKKILDEYIEDHLRAVHTGDEDRVKHQIDPHVRIDVNGVELIGMEDWKKFLDILGVDNIQVDRYEIKDYHLVGDKATLHEHRDVKYNGVRSRHNINFVVQKIDGKWYFTEYQTE,protease stability score,0.399
DELKKMLKEMEEFHTDLLETGDFEKIIRNVDPHVRIDVNGQEHHGWHEAVEFIREFIERFKNVKIIIEHVEIQGDKLILHMEFRQGEFHSRLIVYSLKVNGRWILKDMEIR,protease stability score,1.67
DELKRDADHAVELLHRVIHTGDEDTFVELIDPHVRLDFNGRELIGWEEVRKLMRDLGWEQIHYEIEDIKVYNGQVEIHSRVNINGRTHQSHYHIEKVNGRWILRHVEYE,protease stability score,1.37
DELKRYLEELVRRVLQATLTGDEDHFSHLADPTTRLILEDEDHHVENHGREDVRRFMEEHFRRVDHWHISLRRLHPVGNKMHSTGTLRVTFDGVKVDVEVRNHFVMVDGRIKFWKIEFI,protease stability score,1.23
DELKSLSRKATEDIVELIITGDEKMLREYMDPNVRVDINGQEIHGREIFFEYIRHLLEHMGVDHLKLDRMEVRDINGQLYIHFRGTTVFNGRTYDEELIWVIVKIDGRWYIEQIEIRFE,protease stability score,1.3
DELKTDFENAIRLYEHATKTGDEHEIRKLLDPHVRVDINGREHHGMEHYSDLLHEFLKRLGADHIQFEFKDSHLQGNKLHLHGIIHVHVGDKTHTIDSSVIYEKVDGRWIISSVWYR,protease stability score,1.01
DELNEITHKFMHEFLRAELTGDWEELHRMLDPHARYIAHIDGREIHFIGRERVLKFMEEWLRRVKNVRIQINDHRVQGDYNHIDGKLKINGKTHDVHIELVMVDGRNHEIHVFIH,protease stability score,1.61
DELNELNKEAFETYHQISETGNETMHSRNADPHVRIDINGVEYHGWEHAERLWKNLGVKHIQFHDIEIQGNKLIITVIVEVNGQETRSEVILLKINGRWLIHSLSFR,protease stability score,1.06
DELQHELERFLEEESRMLKTGDEKRLLELADPDVRVHIDGVDMVGWEALETMWRILKERLGADHVEDVKIRHVDLQGDKADMDVEFDMIQGDKKHYLRSRLIVTKINGRWLLRYVIIK,protease stability score,1.75
DELQKMAKHWIELMIRAQETGDEEELKKYLDPDVRIDVDGRELHGREKADELLKEIRIHEFEIKHMRFQGDKLHLHGTDNQRQGNYEYHVEVTYHLIKINGRWSLREIRVE,protease stability score,0.637
DELQRDSEEAFELVLRVLRTGDEETMSRLADPHTRINVHQGDKIVEFHGREDFERFMHDLLRKFPNMRIDAERVHTFNGQVVINHRLHVNGQERDLHIFSLKIDGRWHLKHVELKLK,protease stability score,1.73
DELQRDSKQAVKLWSESVLTGDERVLKEMADPDPRVEVGEYSSHGMHEVKRLLREMRIEVEDFKDENVRVYGEKLVVDGILHIRIHINGRDEHIDRRAILIMVKVDGRWYFKSMVYR,protease stability score,0.781
DELRDEVRRWLTKLIEDHKTGDEKAMMELADPNVKVVIDGKELVGMELYEHFVRYWREHIRLTDLKIHDMRIQGDKVHAETRVEGNFNGKYRVIETRVLIVKINGRWFLKEIEID,protease stability score,2.02
DELREDSERAEEWLITASETGNEEDILKLADPNTRIDINGKDLHGRESLEHFIRRYKGVTVRIRHRDIINGKLHLDTELRIDGVTLRTELIITKVNGRWYLEEQIVR,protease stability score,1.07
DELREESEHARQLYWRSIFTGDEDHFEKLLDPNARVYVNGKNLHGREDVLRVFHELRFRRLHWHDFDDQGDKLFFITKTVVDFNGVKMEQRTELYLRKVDGRWHVEEIRFE,protease stability score,0.997
DELREHVEEVMRWFFERIKTGDEENFHKMADPDARLQVGDKNVHGRENVLKEWRRHREEIRIEDMKIRELHVIGNYAYLDIHVDITYNGKRKETRVELRVVVIDGRIEHIEIRIN,protease stability score,0.439
DELRKEAEEHAQHLLDLFDTGDWDRISELADPNTLVIIDINGVHINNVGWEEIRKLWEITRHHLRIEERRVESSRTFENRVELDVKDHIKVGNKKINLDSHITIDVVNGQMKRVDFQLR,protease stability score,2.04
DELRKESEDLVRILIEIFHTGDEDVFKRMADPHVRLIAENRIVVGRDLVSRFFRHLLEKYPNVTDHVDVRRIILVGDWLHIDLRIDIEIGDKRHEHDVKIHVRKIDGRWVITEIHVK,protease stability score,1.85
DELRTHAKKMILILFHHLLTGDEEWLHRFMDPSTRRDVGDKELHGMEQITHDIVKEIFLRGAEIHITIRTFRFQGNYLDANIEIKIIVNGQEIHFEVLIHIVKVDGVWLVRSMRFH,protease stability score,1.43
DELTDSREHALNLYIHKLETGDWNLHERFLDPNVRVDYDGVDLHGREIYRQWETERLEIAGIKHLELKRKSVQGEKIRIDGIEKFDGKEVKTHVIILKVNGKWILETVIFK,protease stability score,0.171
DELTEDLKHAMTIFLHMLITGDEHWIHDLLDPNTRLEFEGREFVGREDAREEWRKISEEIRVHHVEMKDIHVFDGVIIVDGRMDGEVNGRRTHLNVFFVFHKVNGKWLMRQHSLR,protease stability score,1.42
DELTEELRHLAHLMIVSLLTGDPSVFQRYLDPNTKSVVNGKNIHGMEEFDKIILEELKRVDHLEIELKRIDAFDGVTHIDGKLKLRIGDKTVETRMEVNIFTINGKVKSIEISRQ,protease stability score,1.33
DELTEEVRKFLERLWRATHTGNEKEFWELVDPNVRDDINGRILHGRETVIRIITELGFKVRHNEFRDERVVGEYATVHGNFNVDINGKEHEVDVEIIVEKVNGVWTLKYRHFR,protease stability score,1.54
DELTEILKHAVERLLRHIVTGDEDSVSELADPNVKVDFNGQEYHGMHFFSHLASRFKGLRLELTELHSVGNYMDTRMHVEVNGKNIELILHSKKVNGKWSLERSEFH,protease stability score,1.26
DELTEIMLRIAQLILTILLTGNEDHFKRLFDPNVRLTINGVDFVGREWIVHFMRNLTDELRIKDNKIEDIRVQGDKAKVDSRLDGEVDGQHMELRTSYVLIKIDGRWSVHSVEFR,protease stability score,1.26
DELTELAEKAKELFVRIEKTGDEKTWSEYADPDVRIHVNGVDLHGREESLKWMHDLRERIKNMRVEFKDFKIEIIGNKVIIFIDGRLRYDGRELELESVYYVSKFNGRWRVESEELRIR,protease stability score,1.37
DELTESVREFIEHFIRALETGDWHILHRLLDPHVKLNVNGVEFHGREIIVEFLREIRIHSFIVHHVRIQGDWIDIDGETDGVINGRRIRTRTRIHLHKIDGRWQIKSESVI,protease stability score,2.09
DELTEVADYLLEHFIRNLITGNEERVRHLADPHVRVIEVYGDKVEMRHGRDSMLKWMHDWRHHIRLKHYQIEHIEVQGEKSVVHGRLRGNIDGRDIDTRTHIEVVHIDGRFTSMRYEVR,protease stability score,0.555
DELTHAVTRFHKETMDAVRTGNEEWHSRLLDPNTRIHIGEFNNVGMEQVIEILRRVKNLRIHHVHLDHIDFYDGRADIHGTVHGIWNGRHRKVKHEHFLLKIDGVWYLEEIRVE,protease stability score,0.371
DELTKEFEHFLEMLRRAQETGDEETVAKLMDPDVRIIIDGRNIIGREELTRFVSEWREEITVNEKHLKVINGRIHVDGEYHSRIRFDGREQRYSTRVHIVTIKVDGQWLLRTVHIG,protease stability score,1.05
DELTNEHERYLHFLWEMIKTGDEENLENLVDPHARLEFENREFHGREDVRKWLVEIRFHRVHLRRMEVQGNKVILDTELDGEFNGQRVRHTTKTHALKVNGQWLLHELIIK,protease stability score,1.25
DELTRDFEEATELLIRILLTGDEDIFREMADPNVRLHYGDKTFIGREEFVKWLHQWRIEDIKIDHVDLQGDYAIVHGRIRTVIGDKEHKVDTKWIIRKYNGKWDIREVHIR,protease stability score,2.07
DELTREMDRVHEELVRSLTTGDEDRLASMMDPNARLRIDGVNFIGRDKIREFWHQIDHSSMHLHHIHVYGDKIRLEGELILNFNGVEHNHETLMIIKKVDGKWVIESIHLK,protease stability score,1.79
DELTRQMRTFAERWIHAERTGDEEILRELMDPHAKLDVKQGDKRHDWHGRERITEFIRRMGIKHIQVDHVELQGEKIHMHVTMYVDGQVLDSTLKLWVVDGVTKSVEIEFK,protease stability score,1.2
DELTTLAREFLRLIKEVLETGDERTMHELADPNYRIRIGDKLVHGWEQQSELIIRIRTELGMTVKDSRIEDSHVQGDKLVVRVRLDMIQGDKKDSVDRIVRVDKINGKWIMSEIELI,protease stability score,1.49
